This note sets out measurements from US20070162998A1.

The experiment has as its target papain (cysteine protease) (UniProt P00784). Put plainly: cell-based or functional assay.
Sequence of UniProt P00784 (P00784 134-345 limits assumed): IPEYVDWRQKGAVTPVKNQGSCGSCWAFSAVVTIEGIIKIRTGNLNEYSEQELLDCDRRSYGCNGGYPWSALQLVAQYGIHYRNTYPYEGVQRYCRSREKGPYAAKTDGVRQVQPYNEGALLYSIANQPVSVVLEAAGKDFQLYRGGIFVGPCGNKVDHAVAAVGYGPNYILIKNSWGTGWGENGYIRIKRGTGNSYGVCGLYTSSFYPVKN

“recombinant CeCPI protein (taro cysteine protease inhibitor, tarocystatin)” showed a residual protease activity of papain on 0.1% gelatin/SDS-PAGE of 100.
